Measured values reported in publication PMC4227796.

Columns and labels:
RecQL4_N388 = target: T1, RecQL4_N388 (Homo sapiens, UniProt O94761 1-388); assay: EMSA
T1 sequence: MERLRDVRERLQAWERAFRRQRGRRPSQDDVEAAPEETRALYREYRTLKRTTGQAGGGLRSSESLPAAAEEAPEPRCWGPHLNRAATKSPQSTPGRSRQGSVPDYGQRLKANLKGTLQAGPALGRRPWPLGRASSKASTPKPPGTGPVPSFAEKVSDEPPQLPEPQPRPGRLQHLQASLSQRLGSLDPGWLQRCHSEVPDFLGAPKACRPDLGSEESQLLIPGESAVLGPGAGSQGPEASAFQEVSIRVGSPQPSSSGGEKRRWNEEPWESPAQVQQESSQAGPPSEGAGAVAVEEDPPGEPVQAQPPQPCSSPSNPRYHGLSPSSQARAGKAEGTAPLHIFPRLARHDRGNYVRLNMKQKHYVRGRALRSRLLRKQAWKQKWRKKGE

RecQL4_FL = target: T2, RecQL4_FL (Homo sapiens, UniProt O94761 1-1208); assay: EMSA
T2 sequence: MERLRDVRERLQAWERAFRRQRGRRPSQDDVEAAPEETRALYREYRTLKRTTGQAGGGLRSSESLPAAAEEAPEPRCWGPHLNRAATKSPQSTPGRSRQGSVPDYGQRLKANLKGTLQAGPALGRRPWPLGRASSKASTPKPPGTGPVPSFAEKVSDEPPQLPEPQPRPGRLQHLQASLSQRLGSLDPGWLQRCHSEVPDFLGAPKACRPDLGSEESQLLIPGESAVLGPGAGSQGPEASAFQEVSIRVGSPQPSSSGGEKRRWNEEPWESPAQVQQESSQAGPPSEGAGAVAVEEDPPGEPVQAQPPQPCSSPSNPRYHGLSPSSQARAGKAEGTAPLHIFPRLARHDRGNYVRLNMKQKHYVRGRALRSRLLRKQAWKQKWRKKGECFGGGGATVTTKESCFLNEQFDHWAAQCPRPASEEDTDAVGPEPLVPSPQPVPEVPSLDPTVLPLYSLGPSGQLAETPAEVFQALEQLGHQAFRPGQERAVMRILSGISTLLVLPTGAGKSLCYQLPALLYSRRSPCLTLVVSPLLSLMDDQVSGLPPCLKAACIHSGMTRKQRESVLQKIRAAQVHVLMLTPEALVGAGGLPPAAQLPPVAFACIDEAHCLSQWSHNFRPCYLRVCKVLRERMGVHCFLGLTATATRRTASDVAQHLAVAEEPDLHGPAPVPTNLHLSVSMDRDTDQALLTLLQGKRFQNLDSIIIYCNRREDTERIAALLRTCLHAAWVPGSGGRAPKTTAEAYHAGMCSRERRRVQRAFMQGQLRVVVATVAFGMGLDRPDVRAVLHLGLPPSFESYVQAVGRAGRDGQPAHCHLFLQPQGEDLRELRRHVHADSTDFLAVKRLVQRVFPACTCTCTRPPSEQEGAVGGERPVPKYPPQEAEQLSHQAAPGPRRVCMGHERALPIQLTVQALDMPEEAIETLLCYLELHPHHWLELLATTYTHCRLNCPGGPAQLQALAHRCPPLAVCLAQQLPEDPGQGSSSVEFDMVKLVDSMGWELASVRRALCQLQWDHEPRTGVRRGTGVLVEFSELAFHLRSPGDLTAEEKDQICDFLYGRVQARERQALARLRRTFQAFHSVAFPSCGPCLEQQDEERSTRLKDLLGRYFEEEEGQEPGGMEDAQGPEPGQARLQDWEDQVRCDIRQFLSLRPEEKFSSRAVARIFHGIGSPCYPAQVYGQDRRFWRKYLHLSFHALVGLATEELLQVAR

B1: LB2_GC (ssDNA)
DNA: GCAGAGGCCCGGCACGAGCTTCCCC
B1: binds (RecQL4_N388); binds (RecQL4_FL).
